Assay: label from the status in PepcDB records
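Note: failed if final PepcDB status was selected cloned or expressed and not failed if soluble or beyond.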

| Sequence | protein production |
| --- | --- |
| MSQILIGVGWVLFTVLLYQLSKKIYKLFPTPFTIPMLVATGLMAFLFIVLDIPYQHYMESGGGWIAKLLGPGVVAFAIPLYKQRHVLQKYVVPIAGGVLVGTTVAIASDFAIASLMGTDKSLILSSLPKSVTMPVAMSVSEQVGGVPSLTAAFVVIAGITGTITGPLLLKWSRVTNSVGKGIGFGCASHIMGVMRAMKNNEHEGVIGSVTMTLTAILTCLLGPLFAMMFM | failed |
| MCQTCLSWYARCVAPYFVHAGCSAGAFSQMRRRVIPRAEGVVVEVGFGSGLNLPYYDAARVERLVGIDPDGTMLGLAAPKSRAMPFAVECIRAGGESLPLADGIADTVVVTYAFCTIPDPQAALSEIRRVLKPRGRLIFIEHGQAEGPRGRRWQQRLNRLWGSIAGGCHLNRDPLRLIGGAGFRLLEVQHGRFPLPLWQLGSHHAGIAAAG | failed |
| MAKSKSSQGASGARRKPAPSLYQHISSFKPQFSTRVDDVLHFSKTLTWRSEIIPDKSKGTLTTSLLYSQGSDIYEIDTTLPLKTFYDDDDDDDNDDDDEEGNGKTKSAATPNPEYGDAFQDVEGKPLRPKWIYQGETVAKMQYLESSDDSTAIAMSKNGSLAWFRDEIKVPVHIVQEMMGPATRYSSIHSLTRPGSLAVSDFDVSTNMDTVVKSQSNGYEEDSILKIIDNSDRPGDILRTVHVPGTNVAHSVRFFNNHLFASCSDDNILRFWDTRTADKPLWTLSEPKNGRLTSFDSSQVTENLFVTGFSTGVIKLWDARAVQLATTDLTHRQNGEEPIQNEIAKLFHSGGDSVVDILFSQTSATEFVTVGGTGNVYHWDMEYSFSRNDDDNEDEVRVAAPEELQGQCLKFFHTGGTRRSSNQFGKRNTVALHPVINDFVGTVDSDSLVTAYKPFLASDFIGRGYDD | failed |
| MVPDPFRVGPWTSVREAARLMAQRRVGSLVVVEDGQVLGVVTSRDLRGAHPNRLVVDVLKGPPVAISPEASLLEAKRLMEAKGLERLLVMRDRKLLGILTQGTLAFALGQHFDPLTGLPRADLLRHHLESLLAQGKDPTLLFVDLDDFGRLNKENGHPFGDRVLKTLGQRLKGFAQDLGGEVYRYGGDEFALVFPHPRQALLPALPSLLSPLEVEGKRVGFSVGVAGGRRRQRRVSANPSATADDLLKLASLASTHAKRQGSGWAPAEALKAKEGAPEGVSSPKEPQSAWGDNRRAARGGGGPRSGGRGSGPTGP | failed |
| MAIMRHGLAASVMGTALAMVVAVLPAGCANGQVGEANRPGTTPPSEIALAPSGLGSYLAARHAEAEGDTEAAAAFYLTALADDPDNLNLLRRAYFFNAVEGKVGEAAELASRLMVSDPTATIAPLVISADLAKRGQMREAATLINGQNRQGLNSFLVPVALAWARAGAGDAGGAMTALDELSKNAGYATLRALHGALLQEQLGNKAKAGELYEAYVKGGERPSLRGVQLAGGFFVRTGQAARARALAADYSQRFPDSLLLDNAVAGFAEGGTPPAPEVGTAKDGMAELYYGTASLLADNDLQTATMFNRLALHLRPDFPLAQLLLGQLLAGQNRHDDAIAAYRGIESHDTLMLAAGLAEAESLRAQGKIDDAVVEFDKLAAHFPSRPDPLIEKGDLLRQDQRFAEAATAYSAAIARMGAPDPRHWAVYFGRGVAYERTDRWPLAEQDFQTALRLNPDQPFVLNYLGYSWLDNGINVDQAKQLIERAVAQRPKDGYIIDSLGWAHFRLGEYAEAVGILERAIHETPDDATINDHLGDAYWMVGRRLEARYQWERALSLADDADLSASIQKKLDTGLSPPSPVVPRSAGRPAERQPTSATP | failed |
| QEVSWTQYTQRKFQKSRQPRPSSQYNQRLFGGDMEKFIQSSGQPVPLVVESCIRFINLNGLQHEGIFRVSGAQLRVSEIRDAFERGEDPLVEGCTAHDLDSVAGVLKLYFRSLEPPLFPPDLFGELLASSELEDTAERVEHVSRLLWRLPAPVLVVLRYLFTFLNHLAQYSDENMMDPYNLAVCFGPTLLPVPAGQDPVALQGRVNQLVQTLIVQPDRVFPPLTSLPGPVYE | failed |
| MDPTEMRYLEEENGAMMKTFKDAVTGFATGKTSLVFIGVEQLVQNFRAKRDFFNGAHITMTKVARTHY | failed |
| MSLFMSCVGILVLLFIGFLLSENKKAINVRTIVIALITQISFGAFVMYVPLGQGILQMMSDAVNHIINFSNEGLTFVFGDLANYKVGFIFVINVLCVVIFISALISVLYYLKIMQFVINLIGGALSKLFGTSKAESMSATANIFVGPIEAPSMVRPLIKKMTRSELFAVMTGGLASVAGGTMIGYINLGIDPKYILTACFMTAPAGLLFAKLLCPQTEQEKITNEIEIDDETTPKSLLDAITDGSIMGMNQVATVTALLISFVALIALVNSLVGGIGDLISIEGLSLELIIGYILSPLAFLMGVPWSEAVTAASLIGQKIAVNEFVAYINFIEIAETLSPKTQAIVVFSLCGFANIGSLAMVIGGLGAICPNKRHILSEIGPRVLMAAILANLMSGTIAGALLSFS | failed |
| MLVKFWGVRGSLPAPLTPAQVQSKIAAVVQRITLKDIESQDSRERFLASLPKWLFGTIGSNTACVEVETDDGGHLIFDAGTGIRELGIDLMKRPDYGKNTTYHLFFSHFHWDHIQGLPFFNPAYDPRNKIIVYSTRKKAKEFLEDQMKYPYFPISMLGEDGFGASFEFKYIEPDQKYVEIGDTKIGWHRVRHPGGCTAYSVIEKGKKIIYSTDTELRPRDFERNEQNAEFYTDAEMLIIDAQYTLTDSILKEGWGHSTFSVAIDFAAGWNIKSIALFHHEPTYHDKKVFSLKQTADWYRDCSRAPDIKIFIAQEGRSFLI | failed |
| MSGEPDGERVIAGRYRLLSPLGEGGMGTVWRARDEVLRREVAVKEVRAPAGLSQPDVGRMYARLEREAWAAARISHPNVVTVYDVATDGGRPWIVMELVRGLSLADLLDAEGPLEPRRAALIGAEVLAALRAAHAAGVLHRDVKPANVLLANDGRVVLTDFGIARVEGSEALTMTGEVVGSPEFLAPERALGRTPGAASDLWSLGVLLYATVEGVSPFRQGTPLSTLRAIVDEAVPPPRRAGALGPVVEGLLRKDPAERLPAEEAERALRLVGAGGAPPGRGPRTGAPPSGAFAPTVVAAHPGPPTAPTPPMPVPAAGDTSAAGAPGAPGGRDRRARAVLLVGLAVLVLALAGLTYSLLDRSDGGGGTEGSGGSPGPGATSAATSGGAGEPSPPASSGTDGGQSGPAAQSVEVTVVGSRTHYSGACPPPHDRAPAFTATFTVGRLPAEVGYRWVTADGSVSDPGWRTLSFPSGGERSRQDGVVVTTHDDTGAFESAVRVEVRSPVRATSDAVAFSVTCGTGTETETGTGTPSGGASHSSSPSAPSSSPSA | failed |
| MSQLVTHAFDDATALSFDGRQFHGQVKAEYYNMVGPFGGITAATMLKAAMSHPERLGQPLALTVNFAAPAKVAPFVIEAVPVRTNRSTQHFTLTMMQDGEVVTTATAVFGIRRESWSHTEAVMPDVPPPADVPRFVAPAPLPWMQWYHVRLIRGSAFDEVQDATTYQWMRDDPPRPLDHAALAALCDTFVPRVYVKLKRPVPIGTVTFTVYFLADPETIFRQGTNELLGVARATGFSHGYFDQIGEVWSQDGDLLATTTQLVYMKAPVSGSS | not failed |
| MSLSTARIMLVDDHPIVREGYRRLIERRPGYAVVAEAADAGEAYRLYRETTPDIVVMDLTLPGPGGIEATRHIRQWDGAARILIFTMHQGSAFALKAFEAGASGYVTKSSDPAELVQAIEAILAGRRAMSPDIAQEIAEERVEGREGHHHHHH | not failed |
| MEDIIVVENLVKKFGDFEAVKGVSFSVKKGEIFAFLGPNGAGKTTTIHMLTTLLKPTSGKAWVAGHDVLKEPREVRRKIGIVFQDQSLDRELTAYENMYIHGKIYGYGGEKLKKRILELLEFVELLEFKDKPVKTFSGGMARRLEIARSLIHEPEVLFLDEPTIGLDPHTRAHMWEYISKMKKEHNMTIFLTTHYMDEAEQLADRVAIIDHGKIIALGTPTELKRMVGKEIIYVRFSEAVECLEGDFIESCRKLPDGRLELNVEDSGRAIPKIFELAQQKGLKIEEITYHKPTLNDVFLHLTGRELREEGPENSFKTMARMRMRMRR | not failed |
| MGNSLHQIKCCTSFIHCQNAAVDAPSIAKTLADYLYPAFFHQDLPAPLKISVTGCPNQCGGGVEADIGISGYFATVPRVDDAGLMAANIDFGHLISGCPVGAIRPRQVEGGTTVVINAERCIRCTSCIQVAPEGIKPGPERFVAIAVGGHGGNNRRGPEMAAVVFSRVPARPLDYAAICERVQRIIACWRDRGKRGERLAGFLERLEHHHHHH | failed |
| MSLETVRLQRELIEAQRQTYNEMRTYFTVNGVEGVIGAVFDEGVITLRVPSEVLFAPGAVELAPGADRVLATLKDLFIRRREQNINIKGFTDDVQPSANARFKDNWEVSALRSVNVLRYFLGAGIEPARLTATGLGELDPLFPNTSDENRARNRRVEFVLERRVVREGHHHHHH | not failed |
| MITRLVLATAGAAVALGLPADVRAYEYEQEATTKLMTDMIVDLGGHDTVRRNSGKTVRCGDGGTRRVSIVRRGATTTYRGDYRNCRERGLTRDGFYEIVFKGDEIVSSTSKRSVNGELFDAAMAGNAAGVRKLIRARADVNYTESVDRTEGGTIDGVSPLMVATMAGSLDTVKLLVANGAWVNYLNSMAVNALWIAAHNGHPEIVRYLAGRGAYLNNSNVEDVTPLMAAAMNGHLAVVKFLVGAKADINAVHRDGDTALMFALAQNRTDIARFLIDAGADVAVRNRHGVTALLIAVAEGNEEIVRALLERKADVSVRTADGKSALDVARARGMDGIAKLLEAAGSY | failed |
| QKRAWITAPVALREGEDLSKKNPIAKIHSDLAEERGLKITYKYTGKGITEPPFGIFVFNKDTGELNVTSILDREETPFFLLTGYALDARGNNVEKPLELRIKVLDINDNEPVFTQD | not failed |
| MVGINTDTENISELLKTYWSIQRISAGYADQNAASLGLTIQQLAMINVIYSTPGISVADLTKRLIITGSSAAANVDGLISLGLVVKLNKTIPNDSMDLTLKLSKKGEDLSKRSTANAFMYKAMMKVFENLTENEIEELIRLNKKVETLLKKSK | not failed |
| MFCLMSKEYLSWDKFIVTKIPSSVKLDPIIYEYIKKDHLILDIGCGVGKVSLQLAFQGFYVEGIDINETGILAAQDSARKLNLADKAHFRVGDAKDLPYMDDKFDIVIMHGLLTIIVDNSDRNKIIQEAYRVLNPEGHLYIVDFGQTWHSDIYRERYLKDFPITKEEGSFLVYNKDTGEIEFISHHYTEKELIFLLVNNGFKIDYFRDFLLFSGFSFSLYIVQNNKILIILIYFFYLWEKETLQ | failed |
| MKDLIKVQQKLIPDLIDKMYRRFYILSTISQNQPVGRRSLSEHMDMTERVLRSETDMLKKQELIRVKPTGMEITNEGTEVLAQLGEYFNVYSDDHKLASAIKDKFHIKDVHVIPGDSDSNRTVKREMGQQAGQLLEGILYEDAIVSVTGGSTMACVSESIHLLPFNVFFVPARGGLGENVVYQANTIASSMAQQAGGYYTTLYVPDNVSESTYDTLMLEPSVMHTLDKIKQANITIHGIGDALKMAHRRQSSQNVIDNLQHHQAVGEAFGYYFDAQGQIVHKVKTIGLQLEDLENKDFIFAVAGGQSKGEAIKAYLSIAPENTVLITDEAAAKVILQ | not failed |
| VRQKGIDIIFMLDISNSMLARDTAPDRLTHAKTELLQISRRLGDGRKALLLFAGTPVVQCPLTDDEEDFEILLDMAAPELITTQGTDYRRAFDAALKLTNSGGELSSNETVLVLASDGEDHGNDLGDIATAMKTRGVHLHVIGVGGVQPVPIPMQGGPKRDQQGKIVLTSFKPEPLASLIKTAKGKFYYSRPDAPVHDAVADDIAAEAAEARW | failed |
| MTVELLNEPLSRYPAFDTADPEELRQALSSVYGAKLVEGPIAADFHARSNFVQLDDIALAFGVGTGSIAVEFPEGECARLQIALSGQFTTRSGGTSTAINARQAGIISPGRNARTEYGQNYSFTLLRVSTSALERKLTTLLGCKPKASLEFEPAANNEAPQVVNLRRMLCFLANQLNCSPLPPVVLAELQEAITLLFLSAFRHNYSRQLERESHGIAPKHVRQVEEYIEANWMRPITIEKLTALTGISSRGIFKAFQRSRGYSPMAFAKRVRLQHAHNLLSDGATPTTVTAAALSCGFSNLGHFARDYRDMFGEKPSETLQRARP | failed |

From a protein production outcome set (Wang et al. 2014)
